Here are results for 6 molecules from paper PMC4856396, “The Staphylococcus aureus Global Regulator MgrA Modulates Clumping and Virulence by Controlling Surface Protein Expression”.

Series [1] addresses T1, MgrA (Staphylococcus aureus LAC, UniProt P0C1S0 1-147).
T1 sequence: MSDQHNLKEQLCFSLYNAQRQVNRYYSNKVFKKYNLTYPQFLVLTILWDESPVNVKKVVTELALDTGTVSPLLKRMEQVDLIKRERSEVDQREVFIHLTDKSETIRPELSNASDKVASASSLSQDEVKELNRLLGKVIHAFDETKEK
As to the kind of experiment: EMSA; 0-2 uM MgrA, 50 nM probe; dose-dependent. As to conditions: protein: recombinant; tags: His6-MBP removed by Tev cleavage (untagged; possible linker residues); chain copies: 2; label: IRDye 700 on HC346; blunt. Background: In EMSA bound probe runs differently from free probe, usually more slowly.

Series [2] deals with T1, MgrA. Nature of the series: competition; 10-fold excess over labeled sraP P2 probe. As to conditions: protein: recombinant; tags: His6-MBP removed by Tev cleavage (untagged; possible linker residues); chain copies: 2; blunt.
Series [3] concerns the target T1, MgrA. As to the kind of experiment: competition; 10-fold excess over labeled Pebh. Conditions: protein: recombinant; tags: His6-MBP removed by Tev cleavage (untagged; possible linker residues); chain copies: 2; blunt.
In series [4] the target is T1, MgrA. Nature of the series: EMSA; 0-2 uM MgrA, 50 nM probe. Conditions: protein: recombinant; tags: His6-MBP removed by Tev cleavage (untagged; possible linker residues); chain copies: 2; label: IRDye 700 at one end (HC487); blunt.

B1: sraP P2 probe (sraP probe5) (dsDNA)
DNA 1: TTTGTATCAAAAAAGAGTTGTATTAAATTGAATAGTGGCATATATTATAA
DNA 2: TTATAATATATGCCACTATTCAATTTAATACAACTCTTTTTTGATACAAA
For the molecule B1, in series [1], the binding result is “binds”.

B2: sraP specific competitor SP (dsDNA)
DNA 1: B1 DNA 1
DNA 2: B1 DNA 2
B2: in series [2], the binding result is on record as “binds”.

B3: non-specific competitor NSP (sraP probe 6) (dsDNA)
DNA 1: CTGGAAAAAATTGGGTAAAATCCGGAATTAAAGAAATAGAAATGTTCAAA
DNA 2: TTTGAACATTTCTATTTCTTTAATTCCGGATTTTACCCAATTTTTTCCAG
Regarding B3, the binding result in series [3] is reported as “no binding”.

B4: sraP mutated competitor MP (sraP probe5 mut) (dsDNA)
DNA 1: TTTGTAGATGTCAAGCACCTCATTAAATTGAATAGTGGCATATATTATAA
DNA 2: TTATAATATATGCCACTATTCAATTTAATGAGGTGCTTGACATCTACAAA
For the molecule B4, the binding result in series [2] is given as “no binding”.

B5: Pebh probe (ebh probe2) (dsDNA)
DNA 1: GAGCATAAATAAATTGTTCAACACATAGTTGTAATGTGTTTCAATACTTT
DNA 2: AAAGTATTGAAACACATTACAACTATGTGTTGAACAATTTATTTATGCTC
Take B5: the binding result in series [4] is reported as “binds”.

B6: ebh specific competitor SP (dsDNA)
DNA 1: B5 DNA 1
DNA 2: B5 DNA 2
In the case of B6, the binding result in series [3] is “binds”.
